In paper PMC6298963:
Values joined by “and” are separate entries in the source; they are usually repeats but may differ in a detail not shown here. Identical values can stand only once. Like-named read-outs stand apart in the source and are kept apart here.

Key:
[1] = target: full length human APOBEC3G (human) (UniProt Q9HC16); experiment: atomic force microscopy (protein volume analysis); 80 nM A3G with 4 nM hybrid DNA; 50 mM HEPES pH 7.5, 100 mM NaCl, 5 mM MgCl2, 1 mM DTT, 37 °C 30 min; on APS-mica, tapping mode in air; stoichiometry of A3G on the DNA from volume
[2] = target: full length human APOBEC3G (human) (UniProt Q9HC16); experiment: atomic force microscopy (protein volume analysis); 32 nM A3G with 4 nM hybrid DNA; 50 mM HEPES pH 7.5, 100 mM NaCl, 5 mM MgCl2, 1 mM DTT, 37 °C 30 min; on APS-mica, tapping mode in air; stoichiometry of A3G on the DNA from volume; fractions from areas under the Gaussians
[3] = target: full length human APOBEC3G (human) (UniProt Q9HC16); experiment: atomic force microscopy (protein volume analysis); 16 nM A3G with 4 nM hybrid DNA; 50 mM HEPES pH 7.5, 100 mM NaCl, 5 mM MgCl2, 1 mM DTT, 37 °C 30 min; on APS-mica, tapping mode in air; stoichiometry of A3G on the DNA from volume
[4] = target: full length human APOBEC3G (human) (UniProt Q9HC16); experiment: atomic force microscopy (protein volume analysis); 80 nM A3G with 4 nM hybrid DNA; 50 mM HEPES pH 7.5, 100 mM NaCl, 5 mM MgCl2, 1 mM DTT, 37 °C 30 min; on APS-mica, tapping mode in air; stoichiometry of A3G on the DNA from volume; remark: listed apart in the source

“full length human APOBEC3G (from UniProt Q9HC16 1-384) (enzyme)” was tested, and the percent of A3G-DNA complexes with A3G trimers [1] was 82%, the percent of A3G-DNA complexes with higher order A3G oligomers [1] was 18% and the stoichiometry N [1] was 6. The percent of A3G-DNA complexes with A3G dimers [2] was 78%, the percent of A3G-DNA complexes with A3G tetramers [2] was 22% and the stoichiometry N [2] was 2 and 4. The stoichiometry N [3] was 2 and 3, the percent of A3G-DNA complexes with A3G trimers [4] was 88% and the percent of A3G-DNA complexes with higher order A3G oligomers [4] was 12%. For the same substance, the stoichiometry N [4] was 3.
